The source of these data is a protein production outcome set (Wang et al. 2014).

The data set in a line: label from the status in PepcDB records.
“MSLSSVKDFPKIKAIRSFIIGGVGSGGDYHNVKGGHWLIDSDISTPASKWEQYKKSRTSWGINVLGSFLVEIEATDGTVGFATGFGGPPACWLVHQHFERFLIGADPRNTNLLFEQMYRASMFYGRKGLPIAVISVIDLALWDLLGKVRNEPVYRLIGGATKERLDFYCTGPEPTAAKAMGFWGGKVPLPFCPDDGHEGLRKNVEFLRKHREAVGPDFPIMVDCYMSLNVSYTIELVKACLDLNINWWEECLSPDDTDGFALIKRAHPTVKFTTGEHEYSRYGFRKLVEGRNLDIIQPDVMWLGGLTELLKVAALAAAYDVPVVPHASGPYSYHFQISQPNTPFQEYLANSPDGKSVLPVFGDLFIDEPIPTKGYLTTADLDKPGFGLTINPAARAKLIPSDYLFKVPEIPQNLSTGKEIKSNEQPDKPNGTLDSLAAKVESLTTSTSSEGHHHHHH”: the protein production result is recorded as “not failed”.

With “MRFLFSLIGLVYSSLIKLAVPFNPKARMMVRGRWKVWRQLREGIVPGGRYIWFHAASLGEFEQGRPMIERIRSEYPDYRIVLTFFSPSGYEVRKNYEGADVIVYLPADRLPRVRKFLDLVKPEMAIFIKYDFWPCFLTELERRQIPTYLVSSIFRPSQLFFRWYGGAYKRLLHCFTHIFVQDKASRLLLEKHGIDHVSVAGDTRFDRVISVYEARKSLPLIERFAASVPEDGLVIVGGSSWPPDEEILVRYFNRNPKIKLILAPHEIDKEHLLQIISHIRRPFIRLSEATESDIARQDCLIVDSFGLLSSIYRYGQVAFIGGGFGKGIHNTPEAAVYGIPVIFGPRYEKFKEARELIDVGGGFSVSSAEEFGNLIKRIQTDKAYRDAASRAAADYIRSNAGATGYIVHRIMKLEHHHHHH”, the protein production result is on record as “not failed”. As for “WILWSLTKISNHQEINEIIDQILQLTSDVFAADYTSVSFINNQQIARTISYYKFGKKEENISFSLINTPCAKVIQTKAICYFNDVQKQFPNDKLLKKMKINTYLAGPITNTQDEVIGIMTILCKRKVEFDTLNNTLFGLFLSRINSEIERLINLRKLE”, the entry is “failed”. The same measure for “MSLAMQDFRPGVYRHYKGDHYLALGLARADETDEVVVVYTRLYARAGLPMSTRLLRIWNETVDTGAGPQPRFAYVGHVTPEQGEGHHHHHH”: “not failed”; for “YMVPGLWGAPLKAVSAFAPPMKTQDFNLYTNEVHAKFDDYDLGMEYARQHNKPVMLDFTGYGCVNCRKMELAVWTDPKVSSIINNDYVLITLYVDNKTPLTEPVKIMENGTERTLRTVGDKWSYLQRVKFGANAQPFYVLIDNEGNPLNKSYAYDEDISKYINFLQTGLENYRKEK”: “failed”. The same measure for “MTLSRSSADDSTNNANRSYSAVAGTDNKRKRDEDSSDYVGVAESLEMLKKQEIDADHMAASAQQTLISWRSGENSRSLSSSGECSSSNRPESTRLQIFVRMMSGGKTIVIHAEKYDTVEKLHQRIEWKTKIPALEQRVIYKGKQLQRENSLTYYSIEQDASLQLVARMQSTEHPVAWQTIDDIMYTISRMYKGENLQSNINEKIVTFFAMIPVESDESIAKYLNIFSNSSVPAALVMLYASSLERNKSCAKSSVKLFLSNCVALPKNQKNYCLPIVLEFCKLLRKVCPDQKLYVTCRNTLGSMLETFDNPHGVYNDQYETFGVEIFPFFTELTGLLLNELAQNSGPSFCDFQKVSSFWQQLRKVIELKVAFPIPIVLPMQSTALEAEIRHLHRLFGSLLTTMDLCMCRVESSLADKEVGNSETMSSSWSQYLSILKIINSMSNIYQGAKGQLAVMLNKNKVSFSALVVKFAKRGDDHQWIFEYKEATNFEARRHLAMLLFPDVKEDFEEMHEMLIDRSNLLSESFEYIVGASPEALHGGLFMEFKNEEATGPGVLREWFYLVCQEIFNPKNTLFLRSADDFRRFSPNPASKVDPLHPDFFEFTGRVIALALMHKVQVGVLFDRVFFLQLAGLKISLEDIKDTDRIMYNSCKQILEMDPEFFDSNAGLGLTFVLETEELGKRDTIELCPDGKLKAVNSKNRKQYVDLLIERRFATPILEQVKQFSRGFTDMLSHSVPPRSFFKRLYLEDLDGMLRGGENPISIDDWKAHTEYNGFKETDRQIDWFWKILKKMTEEEQRSILFFWTSNKFVPVEGFRGLSSKLYIYRLYEANDRLPLSHTCFYRLCIPRYPTITLMEQRLRLIAQDHVSSSFGKW”: “failed”; for “ANKKIDHREEAIELLKQDAKRILQLIKVQMDNLTLPQCPAYEEVLDTQMYGLSREINFATRLGLIEPEEGKKLISTLEKELSALHELSMSK”: “failed”; for “MLDNAIPQGFEDAVELRRKNRETVVKYMNTKGQDRLRRHELFVEDGCGGLWTTDTGSPIVIRGKDKLAEHAVWSLKCFPDWEWYNIKVFETDDPNHFWVECDGHGKILFPGYPEGYYENHFLHSFELDDGKIKRNREFMNVFQQLRALSIPVPQIKREGIPT”: “not failed”.

For the sequence “MENSLNQNKVWGWGELALMYFPNISQKSATMQLLKWIRVSDELVGQLEKSGWHPGKKYLTPRQKDYIVGHLGEP”, the protein production entry is on record as “failed”. As for “MPSRKFADGEVVRGRWPGSSLYYEVEILSHDSTSQLYTVKYKDGTELELKENDIK”, the entry is “not failed”; as for “MKIPIILTLMLFSLGFIFGFISINNLSKINDKDLSNYIPNIQFNFPSILTNNLKVIFLMLAGSITFGLSTFINLIFNGFNVGVLIGSISLTNEPLKLITALILPHGIFEISAMLISAVAGFKIPYKVTLYLLDKKEKPLTEEDIKDFLKLSLISIILIVIAAFIEVYITPKIATYLLT”, “failed”. On to “MIPPELDMSLLLEFIGANEGTGHFKPLEKKFVRVSGEATIGHVEKFLRRKMGLDPACQVDIICGDHLLEQYQTLREIRRAIGDAAMQDGLLVLHYGLVVSP”, for which the protein production result was “not failed”. With “MGTQRSDTRDQSARLMRRATYASVTVAMTLVVAKLVAWVLTDSVALLSTLIDSLIDVGASLVTLLAVREALTPADEEHRFGHGKAEPLAGLGQAAFIAGSGIFLVIEAAGRLTAPLPVQRGEIGIAVMVFSILATIGLVAYQRRVIAQTKSVAISADSLHYAGDLLINLSVIVSLGLAMTVDLPILDPLFAIAIALWLMKNAWTIGANSVNLLMDRELPPEDRVRIIKLALENPRVFDIHDLRTRSSGPQTFIQLNVELDGEMTLSASHAIVTEIENRLRAAFPGAEVLIHQDPAGIQEDHHPDFAYEDTSALLEADAASQPRRL”, the protein production entry is listed as “failed”. In the case of “MGHHHHHHENLYFQSHMKFLLAFSLLIPSVVFASSSKFQQVEQDVKAIEVSLSARIGVSVLDTQNGEYWDYNGNQRFPLTSTFKTIACAKLLYDAEQGKVNPNSTVEIKKADLVTYSPVIEKQVGQAITLDDACFATMTTSDNTAANIILSAVGGPKGVTDFLRQIGDKETRLDRIEPDLNEGKLGDLRDTTTPKAIASTLNKFLFGSALSEMNQKKLESWMVNNQVTGNLLRSVLPAGWNIADRSGAGGFGARSITAVVWSEHQAPIIVSIYLAQTQASMEERNDAIVKIGHSIFDVYTSQSR”, the protein production entry is recorded as “not failed”. As to “MYDCSHGAGSSQSPAAEPGPTPRRRHTIHRLAHNDPVNDLDFLLTPEGRALLDEVRDTDPVRELAVATRLRRTHPAELVSAALGQARLRQRAVAKFGAEDAGRMFFTPNGVEQSTRASVAAYRAGRFAALGVASVADLCCGIGGDAIALARAGIRVLAVDRDPVTAAAARANADALGLAGLIEVREADVTEVDTEAYDAVFVDPARRGGRGRIFDPEAYSPPLSWAVRAARTASRAAALKVAPGIPHEAVPEDAEAEWISDGGDVKEAVLWFGAGAAPGAVRATLLPGPRTLPGTGLPDPEVRTPGRYLYEPDGAVIRAHLVAEVAAQVGGGLLDATIAYVTADELLPTPYATAYEITDRMPFNVKKLKALLRERGVGTLTVKKRGSAVEPEELRRKVKPQGPNSATVFLTRVAGAPTMLVGHPAR”, the protein production result was “failed”. The same measure for “MIPTHLPILQVVVPLMAAPVCILLRRPGLCWAWALLIALTTLTMAVGLLAGVLTHGPSAYHLGDWSPPWGIELHVDLLSALVLVLVTATASLVIVYARASFAAEIDPGHHTLAYCLFLLCLTGLLGMAITGDAFNLFVFLEISSLSSYALVALGRDRRALYAAYHYLILGTVGATFYVIGIGFLYMMTGTLNMNDLAQRLPAVAHSRTAVAGVVFLGVGLSLKLALFPLHKWLPAAYSYAPSAVGAFLAATSTKVAFYVMVRLFLGVLAPAFSANLLPGPVSAREMVMVLALAAILSGSFSAIFQSDAKRLLAYSSVSQIGVMVLGLSLFSLDGVAGGLVHMLNHALIKASLFMALGCVFLRIGSVEIADMAGIGRRMPWTMAAFVIGGLSLIGIPGTAGFISKWQLAQSAIAEGWWLAVAALIASSLLAVVYVGKVIEAAYFRPSPAESPSGAPSAPQEAPAMMLAPLWIAALANIGFGLNTTWTLGLAKRAASALMGLPS”: “failed”; for “MPGKKQEVQEELLEEQLEKAYQGRINNIKESFAGVLSVLKTANTKKLERITARSHNYLGLLHMIQGNHIKSITHSRQALEYFQRVQSLKDIADAKFNIASSLYKTDNFHDGLKGLLECRQIYKSIGEGRSECRSLKSIATIYEYWSDVNKAFLIYQECIDLATRHGDLAMLSNVYNPMSGLYLKRGDIETATKLSDKSIAIKKKIKDERGLAYSIYGKGKVFFAQQKFAQAETYFLQSLELQQKFGDKLGAGMVLNKLGLTYVEQKKYLQAEKILKQAVSLAEKHNVKVNVYKSYYSLYTLYKLQHKESNALQCLEQFVLHKENNVQSHTSDIIRSYEAANEIYRLEKDTKAQIDYLEIVQKKNTELDSFFYRVSHDLKGPISSLLGLNELIEKEQFDGEALKYFNMYKKLSTRIDAIVMDLITITRISSDKIVPVKIDFMQLIEDCIHSYAYFDNFEHIQFNIEVEEGISFQSEWVIVNTILQNLIENSIKYMRHDVKKPYVFIQVYTQGQMLCIKVTDNGQGISEEYQEKIYEMFFRANDKADGSGLGLYILKRAVERLQGTVSLKSKPGKGAAFTVCIKGE”: “failed”. The same measure for “MAKILEGPAMKLFNKWGIPVPNYVVIMDPERLAQLGEANKWLRESKLVVKAHEAIGGRFKLGLVKLGLNLEEALEASREMIGRKIGTAVVRQVIVAEMLEHDEEYYVSIAGNRDGAELLLSTKGGVDIEDNWDTVKRLFIPMDETPSVERLTEVAAEAGFTGEVAERVAKIAARLILCFDNEDAQSIEINPLVIRKSDMRFAALDAVMNVDYDARFRHADWDFKPVSEIGRPYTEAEQQIMEIDARIKGSVKFVEVPGGEIALLTAGGGASVFYSDAVVARGGTIANYAEYSGDPPDWAVEALTETICRLPKIRHIIVGGAIANFTDVKATFSGIINGLRESRSKGYLQNVTIWVRRGGPNENQGLAAIRKLQDEGFDIHVYDRSMPMTDIVDLAMNS”: “failed”. As for “MNLLRHAVAGLCLVASAGCSGQDVMVRKQSEMETRLEHLHQASTTSGVRLAELSAEVTALRERLAAQGAELEQIKAGQRELQANITERLAQVAPAAGTPSRIEVVSRDGAPREKDGPPDAYLKAFGLYSANNFAGAVEAFQAFLAEHPDSEYAGNALYWIGECHYSRSDLPRALDAFRLVAERYPASTKVPDALLKSGYTLYAMKEPERAREILESLAAKYPRSPAAAKARERLAVATPKKQ”, the protein production result is listed as “failed”. As to “MSKKINELLRYCEENYIERGSLELALRCAVSICKANPDAPQAYAHVAAYRILLTAANYRTVTGEPDWYAVLGINKRGSSKSVVNAIDRRCEEIIEVLDGETGVSKAVSRVYDLVRLGVSELMDEDRRRAYDLRSGFSIIN”, the protein production entry was “failed”. As for “MMKKAGLYIHIPFCLQKCNYCDFFSVRAGRFKNILSGHLSPFVLRLAEDIKIQADKYSINEWDTVYIGGGTPSLLSPDDLYYLSSQIPAAQKNPHREFTVEINPEDLTKDFLSAAVSGGINRFSVGIQSLNDEVLSACKRRGCRKMSLSALELLRSQKGLILSCDLIAGLNKQSLGILKDDIQTLLHFKPEHFSLYALCSNTKLPPEKDDEIAELWSYGKDILEKNSYNKYEVSNFSYKNLYKSIHNEKYWRLEDYIGVGPGAFGSIFFDRKVLHANAHANALRFSAIKNIEKWMTLKNRDEVYEYETIDEKEFIEEAFMMGLRLTEGIDRSFFKSRFGKDISVFAGKTISKWLDRNEAVLTEKRFYLTEKGFLYLNLFLQELFQEIDSLF”, the entry is “failed”.
